Assay results as given in patent publication US20130309230A1 (published 2013).

Tests used:
AA, + MMP-9 = assay: SPR; + MMP-9 (activated AA)
AA, - MMP-9 = assay: SPR; - MMP-9 (uncleaved, masked AA)

Kd (AA, + MMP-9): 0.35 nM | Kd (AA, - MMP-9): > 200 nM
B1: VEGF (ligand)
chain: APMAEGGGQNHHEVVKFMDVYQRSYCHPIETLVDIFQEYPDEIEYIFKPSCVPLMRCGGCCNDEGLECVPTEESNITMQIMRIKPHQGQHIGEMSFLQHNKCECRPKKDRARQENPCGPCSERRKHLFVQDPQTCKCSCKNTDSRCKARQLELNERTCRCDKPRR
